We go through 2 molecules from US20240392004A1 (IMMUNOWAKE, published 2024).

Common to all, as to assay: cell-based or functional assay
The target of experiment [1] is T1, human IL-2 receptor (IL-2Rα, IL-2Rβ, IL-2Rγ) (human, UniProt P01589 22-272; P14784 27-551; P31785 23-369).
T1 sequence (looked up) 1: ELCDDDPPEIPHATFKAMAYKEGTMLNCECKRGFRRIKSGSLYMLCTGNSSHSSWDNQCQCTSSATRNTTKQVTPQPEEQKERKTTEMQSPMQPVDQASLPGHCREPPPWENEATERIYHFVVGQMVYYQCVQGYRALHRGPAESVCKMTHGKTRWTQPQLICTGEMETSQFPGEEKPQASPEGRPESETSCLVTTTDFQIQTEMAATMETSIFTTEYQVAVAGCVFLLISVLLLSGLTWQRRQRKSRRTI
T1 sequence (looked up) 2: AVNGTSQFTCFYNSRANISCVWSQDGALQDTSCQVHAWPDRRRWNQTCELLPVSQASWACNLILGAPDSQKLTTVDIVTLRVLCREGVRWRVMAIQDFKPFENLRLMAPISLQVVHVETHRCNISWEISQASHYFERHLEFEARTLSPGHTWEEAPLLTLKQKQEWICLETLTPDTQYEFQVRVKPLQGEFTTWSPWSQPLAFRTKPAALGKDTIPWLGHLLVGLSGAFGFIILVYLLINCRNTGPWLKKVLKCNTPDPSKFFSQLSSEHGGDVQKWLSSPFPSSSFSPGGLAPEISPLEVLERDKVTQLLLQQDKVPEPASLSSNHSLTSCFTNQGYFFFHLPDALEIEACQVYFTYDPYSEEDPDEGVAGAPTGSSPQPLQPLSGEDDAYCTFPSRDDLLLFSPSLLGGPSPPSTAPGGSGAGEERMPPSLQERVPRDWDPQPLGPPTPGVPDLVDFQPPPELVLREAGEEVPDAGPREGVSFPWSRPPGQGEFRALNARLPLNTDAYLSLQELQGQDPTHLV
T1 sequence (looked up) 3: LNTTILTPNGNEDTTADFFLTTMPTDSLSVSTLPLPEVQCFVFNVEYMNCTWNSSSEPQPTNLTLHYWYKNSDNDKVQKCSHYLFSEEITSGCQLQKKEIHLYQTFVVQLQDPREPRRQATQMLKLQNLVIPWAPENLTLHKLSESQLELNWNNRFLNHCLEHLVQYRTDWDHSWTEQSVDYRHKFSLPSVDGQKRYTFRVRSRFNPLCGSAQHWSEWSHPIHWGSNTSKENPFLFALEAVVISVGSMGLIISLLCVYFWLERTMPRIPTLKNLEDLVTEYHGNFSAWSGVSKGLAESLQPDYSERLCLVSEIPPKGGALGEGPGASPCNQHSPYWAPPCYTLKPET

For experiment [2], the target named is T2, human TIGIT on HEK-Blue reporter cells (human, UniProt Q495A1 22-244).
T2 sequence (looked up): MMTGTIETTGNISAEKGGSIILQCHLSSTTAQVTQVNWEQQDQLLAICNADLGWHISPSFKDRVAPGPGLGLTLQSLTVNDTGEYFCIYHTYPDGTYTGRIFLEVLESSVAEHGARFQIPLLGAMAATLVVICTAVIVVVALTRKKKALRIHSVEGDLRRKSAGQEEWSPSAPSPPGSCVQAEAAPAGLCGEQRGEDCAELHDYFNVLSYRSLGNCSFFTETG

The target in experiment [3] is human IL-12 receptor complex (IL-12Rβ1 and IL-12Rβ2) (human, UniProt P42701 24-662; Q99665 24-862).
human IL-12 receptor complex (IL-12Rβ1 and IL-12Rβ2), sequence (Q99665 24-862, chain 2 of 2, other chains not shown): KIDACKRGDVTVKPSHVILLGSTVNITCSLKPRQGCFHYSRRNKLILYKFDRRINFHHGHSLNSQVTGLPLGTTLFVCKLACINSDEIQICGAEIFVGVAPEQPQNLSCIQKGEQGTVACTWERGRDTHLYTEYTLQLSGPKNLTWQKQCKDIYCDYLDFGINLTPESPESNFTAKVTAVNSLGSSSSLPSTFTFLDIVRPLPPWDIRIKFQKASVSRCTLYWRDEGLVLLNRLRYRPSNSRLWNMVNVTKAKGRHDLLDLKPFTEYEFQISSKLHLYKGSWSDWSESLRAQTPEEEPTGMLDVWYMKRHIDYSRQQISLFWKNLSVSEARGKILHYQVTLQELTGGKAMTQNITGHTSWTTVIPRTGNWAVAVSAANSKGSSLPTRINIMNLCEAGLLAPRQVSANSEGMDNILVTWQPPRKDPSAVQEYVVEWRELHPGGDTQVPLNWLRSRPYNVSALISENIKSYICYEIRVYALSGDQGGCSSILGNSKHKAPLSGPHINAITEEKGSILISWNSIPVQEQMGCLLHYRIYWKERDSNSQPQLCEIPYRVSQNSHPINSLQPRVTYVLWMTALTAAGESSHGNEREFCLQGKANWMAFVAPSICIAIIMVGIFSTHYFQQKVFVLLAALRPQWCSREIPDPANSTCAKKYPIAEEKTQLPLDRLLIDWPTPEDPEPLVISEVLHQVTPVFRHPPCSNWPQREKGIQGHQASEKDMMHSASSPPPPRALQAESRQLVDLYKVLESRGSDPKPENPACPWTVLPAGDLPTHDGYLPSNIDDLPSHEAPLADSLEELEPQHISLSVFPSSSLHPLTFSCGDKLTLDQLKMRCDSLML

B1: IL-12(E59A/F60A)/IL-2(L18R/Q22E/R38D/K43E/E61R/Q126T)/CD155-Fc (Fc fusion)
chain 1: WPPPGTGDVVVQAPTQVPGFLGDSVTLPCYLQVPNMEVTHVSQLTWARHGESGSMAVFHQTQGPSYSESKRLEFVAARLGAELRNASLRMFGLRVEDEGNYTCLFVTFPQGSRSVDIWLRVLAKPQNTAEVQKVQLTGEPVPMARCVSTGGRPPAQITWHSDLGGMPNTSQVPGFLSGTVTVTSLWILVPSSQVDGKNVTCKVEHESFEKPQLLTVNLTVYYPPEVSISGYDNNWYLGQNEATLTCDARSNPEPTGYNWSTTMGPLPPFAVAQGAQLLIRPVDKPINTTLICNVTNALGARQAELTVQVKEGPPSEHSGISRNGGGGSGGGIWELKKDVYVVELDWYPDAPGEMVVLTCDTPEEDGITWTLDQSSEVLGSGKTLTIQVKAAGDAGQYTCHKGGEVLSHSLLLLHKKEDGIWSTDILKDQKEPKNKTFLRCEAKNYSGRFTCWWLTTISTDLTFSVKSSRGSSDPQGVTCGAATLSAERVRGDNKEYEYSVECQEDSACPAAEESLPIEVMVDAVHKLKYENYTSSFFIRDIIKPDPPKNLQLKPLKNSRQVEVSWEYPDTWSTPHSYFSLTFCVQVQGKSKREKKDRVFTDKTSATVICRKNASISVRAQDRYYSSSWSEWASVPCSGGGGSGGGSGGGGSRNLPVATPDPGMFPCLHHSQNLLRAVSNMLQKARQTLEFYPCTSEEIDHEDITKDKTSTVEACLPLELTKNESCLNSRETSFITNGSCLASRKTSFMMALCLSSIYEDLKMYQVEFKTMNAKLLMDPKRQIFLDQNMLAVIDELMQALNFNSETVPQKSSLEEPDFYKTKIKLCILLHAFRIRAVTIDRVMSYLNASGGGGSGGGDKTHTCPPCPAPEDEGGPSVFLFPPKPKDTLMISRTPEVTCVVVDVSHEDPEVKFNWYVDGVEVHNAKTKPREEQYNSTYRVVSVLTVLHQDWLNGKEYKCKVSNKALPAPIEKTISKAKGQPREPQVYVYPPSREEMTKNQVSLTCLVKGFYPSDIAVEWESNGQPENNYKTTPPVLDEDGSFALVSKLTVDKSRWQQGNVFSCSVMHEALHNHYTQKSLSLSPGK
chain 2: WPPPGTGDVVVQAPTQVPGFLGDSVTLPCYLQVPNMEVTHVSQLTWARHGESGSMAVFHQTQGPSYSESKRLEFVAARLGAELRNASLRMFGLRVEDEGNYTCLFVTFPQGSRSVDIWLRVLAKPQNTAEVQKVQLTGEPVPMARCVSTGGRPPAQITWHSDLGGMPNTSQVPGFLSGTVTVTSLWILVPSSQVDGKNVTCKVEHESFEKPQLLTVNLTVYYPPEVSISGYDNNWYLGQNEATLTCDARSNPEPTGYNWSTTMGPLPPFAVAQGAQLLIRPVDKPINTTLICNVTNALGARQAELTVQVKEGPPSEHSGISRNGGGSGAPTSSSTKKTQLQLEHLRLDLEMILNGINNYKNPKLTDMLTFEFYMPKKATELKHLQCLERELKPLEEVLNLAQSKNFHLRPRDLISNINVIVLELKGSETTFMCEYADETATIVEFLNRWITFCTSIISTLTGGGGSGGGDKTHTCPPCPAPEKKGGPSVFLFPPKPKDTLMISRTPEVTCVVVDVSHEDPEVKFNWYVDGVEVHNAKTKPREEQYNSTYRVVSVLTVLHQDWLNGKEYKCKVSNKALPAPIEKTISKAKGQPREPQVYVLPPSREEMTKNQVSLLCLVKGFYPSDIAVEWESNGQPENRYMTWPPVLDSDGSFFLYSKLTVDKSRWQQGNVFSCSVMHEALHNHYTQKSLSLSPGK
As for B1, the “IL-2 signal transduction, HEK-IL-2” value in experiment [1] was 2%. Moreover, in experiment [2], the “IL-2 signal transduction, HEK-IL-2-TIGIT” value turned out to be 20% and the “IL-12 signal transduction, HEK-IL-12-TIGIT” value was determined as 19%. In experiment [3], the “IL-12 signal transduction, HEK-IL-12” value was less than 0.2%.

B2: IL-12(E59A/F60A)/IL-2(L18R/Q22E/R38D/K43E/E61R/Q126T/S130R)/CD155-Fc (Fc fusion)
chain 1: WPPPGTGDVVVQAPTQVPGFLGDSVTLPCYLQVPNMEVTHVSQLTWARHGESGSMAVFHQTQGPSYSESKRLEFVAARLGAELRNASLRMFGLRVEDEGNYTCLFVTFPQGSRSVDIWLRVLAKPQNTAEVQKVQLTGEPVPMARCVSTGGRPPAQITWHSDLGGMPNTSQVPGFLSGTVTVTSLWILVPSSQVDGKNVTCKVEHESFEKPQLLTVNLTVYYPPEVSISGYDNNWYLGQNEATLTCDARSNPEPTGYNWSTTMGPLPPFAVAQGAQLLIRPVDKPINTTLICNVTNALGARQAELTVQVKEGPPSEHSGISRNGGGGSGGGIWELKKDVYVVELDWYPDAPGEMVVLTCDTPEEDGITWTLDQSSEVLGSGKTLTIQVKAAGDAGQYTCHKGGEVLSHSLLLLHKKEDGIWSTDILKDQKEPKNKTFLRCEAKNYSGRFTCWWLTTISTDLTFSVKSSRGSSDPQGVTCGAATLSAERVRGDNKEYEYSVECQEDSACPAAEESLPIEVMVDAVHKLKYENYTSSFFIRDIIKPDPPKNLQLKPLKNSRQVEVSWEYPDTWSTPHSYFSLTFCVQVQGKSKREKKDRVFTDKTSATVICRKNASISVRAQDRYYSSSWSEWASVPCSGGGGSGGGSGGGGSRNLPVATPDPGMFPCLHHSQNLLRAVSNMLQKARQTLEFYPCTSEEIDHEDITKDKTSTVEACLPLELTKNESCLNSRETSFITNGSCLASRKTSFMMALCLSSIYEDLKMYQVEFKTMNAKLLMDPKRQIFLDQNMLAVIDELMQALNFNSETVPQKSSLEEPDFYKTKIKLCILLHAFRIRAVTIDRVMSYLNASGGGGSGGGDKTHTCPPCPAPEDEGGPSVFLFPPKPKDTLMISRTPEVTCVVVDVSHEDPEVKFNWYVDGVEVHNAKTKPREEQYNSTYRVVSVLTVLHQDWLNGKEYKCKVSNKALPAPIEKTISKAKGQPREPQVYVYPPSREEMTKNQVSLTCLVKGFYPSDIAVEWESNGQPENNYKTTPPVLDEDGSFALVSKLTVDKSRWQQGNVFSCSVMHEALHNHYTQKSLSLSPGK
chain 2: WPPPGTGDVVVQAPTQVPGFLGDSVTLPCYLQVPNMEVTHVSQLTWARHGESGSMAVFHQTQGPSYSESKRLEFVAARLGAELRNASLRMFGLRVEDEGNYTCLFVTFPQGSRSVDIWLRVLAKPQNTAEVQKVQLTGEPVPMARCVSTGGRPPAQITWHSDLGGMPNTSQVPGFLSGTVTVTSLWILVPSSQVDGKNVTCKVEHESFEKPQLLTVNLTVYYPPEVSISGYDNNWYLGQNEATLTCDARSNPEPTGYNWSTTMGPLPPFAVAQGAQLLIRPVDKPINTTLICNVTNALGARQAELTVQVKEGPPSEHSGISRNGGGSGAPTSSSTKKTQLQLEHLRLDLEMILNGINNYKNPKLTDMLTFEFYMPKKATELKHLQCLERELKPLEEVLNLAQSKNFHLRPRDLISNINVIVLELKGSETTFMCEYADETATIVEFLNRWITFCTSIIRTLTGGGGSGGGDKTHTCPPCPAPEKKGGPSVFLFPPKPKDTLMISRTPEVTCVVVDVSHEDPEVKFNWYVDGVEVHNAKTKPREEQYNSTYRVVSVLTVLHQDWLNGKEYKCKVSNKALPAPIEKTISKAKGQPREPQVYVLPPSREEMTKNQVSLLCLVKGFYPSDIAVEWESNGQPENRYMTWPPVLDSDGSFFLYSKLTVDKSRWQQGNVFSCSVMHEALHNHYTQKSLSLSPGK
B2: the “IL-2 signal transduction, HEK-IL-2” value in experiment [1] is less than 0.1%. Further, in experiment [2], the “IL-2 signal transduction, HEK-IL-2-TIGIT” value is less than 0.1% and the “IL-12 signal transduction, HEK-IL-12-TIGIT” value stood at 15%. The “IL-12 signal transduction, HEK-IL-12” value in experiment [3] was less than 0.2%.
